Laboratory results: publication PMC2111966

Molecular target: Acanthamoeba actin (Acanthamoeba)
Assay: co-sedimentation

## Acanthamoeba actin (natural protein)
  percent of soluble G-actin converted into an insoluble form: > 95%
